Experimental data reported in patent US20210347908A1 (ELPISCIENCE SUZHOU BIOPHARMA, published 2021).

Columns and labels:
[1] = biological target: T1, Fc tagged human SIRPβ ECD recombinant protein (human, UniProt O00241 30-371); assay: ELISA
T1 construct: range 1-371; cloned range includes the signal peptide; also called hSIRPβ; not shown: human IgG Fc region (hFc) of the pCPC vector
Protocol: (§1) Binding specificity of the purified hybridoma antibodies against SIRP family members was detected by ELISA assay using recombinant proteins of Fc tagged human SIRPα v1 ECD, human SIRPα v2 ECD, human SIRPβ ECD and human SIRPγ ECD. Briefly the antibodies were incubated with ELISA microplate coated antigens at 37° C. for 1 hour. After washing, horseradish peroxidase (HRP) labeled anti-mouse or anti-human IgG 2nd Ab (Sigma) was added and incubated at 37° C. for 1 hour. Then, 100 μl/well of TMB solution (Biotechnology) was added. After incubation for 15 minutes at room temperature, the reaction was stopped by the addition of 50 μl of 1N HCl. OD 450 nm was read and EC₅₀ was calculated. Other than 060 and HEFLB, all of the antibodies as tested can bind with both human SIRPα v1 and SIRPα v2. 060 and HEFLB can bind with human SIRPα v1 but not v2. Other than 055, all of the antibodies as tested can bind with human SIRPβ. In comparison with other known anti-SIRPα antibodies, only 022, 035 and 050 can bind with human SIRPγ weakly.
(§2) The purified chimeric antibodies were applied for binding specificity analysis and species cross reactivity analysis (refer to methods described in Example 3.3 and 3.4). FIGS. 1A to 1D show binding specificity of anti-SIRPα chimeric antibodies against recombinant proteins of human SIRPα v1 ECD (A), human SIRPα v2 ECD (B), human SIRPβ ECD (C) and human SIRPγ ECD (D) as measured by ELISA analysis.

[2] = biological target: T2, Fc tagged human SIRPα v2 ECD recombinant protein (human); assay: ELISA
T2 construct: range 1-369; cloned range M1-R369 includes the signal peptide; also called hSIRPα V2
Protocol: as §1, §2

[3] = biological target: T3, biotin labeled soluble human SIRPα v1 ECD recombinant protein (human, UniProt P78324 31-373, biotin labeled); assay: competitive ELISA; competitor 29-AM4-5
T3 construct: extracellular domain
T3 sequence (P78324 31-373): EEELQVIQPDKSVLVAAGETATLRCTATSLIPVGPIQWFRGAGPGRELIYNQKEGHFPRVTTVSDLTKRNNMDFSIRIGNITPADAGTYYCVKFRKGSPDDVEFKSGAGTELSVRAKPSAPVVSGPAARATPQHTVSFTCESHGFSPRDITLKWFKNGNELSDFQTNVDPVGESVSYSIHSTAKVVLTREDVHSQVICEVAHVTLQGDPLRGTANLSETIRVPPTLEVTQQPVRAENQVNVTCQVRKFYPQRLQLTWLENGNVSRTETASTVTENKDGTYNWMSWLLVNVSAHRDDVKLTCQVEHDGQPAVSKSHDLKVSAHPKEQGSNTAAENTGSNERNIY
Protocol: Competitive ELISA assay was used for epitope binning of 9 functional antibodies. Briefly excessive competitor antibody and biotin labeled soluble human SIRPα v1 ECD recombinant protein were co-incubated with ELISA microplate coated antibody. After washing, HRP-SA was added and incubated at 37° C. for 1 hour. Then, […] of TMB solution (Biotechnology) was added. After incubation for 15 minutes at room temperature, the reaction was stopped by the addition of […] of 1N HCl. OD 450 nm was read. Competition ratio was calculated. The antibodies that can compete each other for binding to SIRPα have the similar binding epitope.

T1 sequence (O00241 30-371 limits assumed, form in doubt): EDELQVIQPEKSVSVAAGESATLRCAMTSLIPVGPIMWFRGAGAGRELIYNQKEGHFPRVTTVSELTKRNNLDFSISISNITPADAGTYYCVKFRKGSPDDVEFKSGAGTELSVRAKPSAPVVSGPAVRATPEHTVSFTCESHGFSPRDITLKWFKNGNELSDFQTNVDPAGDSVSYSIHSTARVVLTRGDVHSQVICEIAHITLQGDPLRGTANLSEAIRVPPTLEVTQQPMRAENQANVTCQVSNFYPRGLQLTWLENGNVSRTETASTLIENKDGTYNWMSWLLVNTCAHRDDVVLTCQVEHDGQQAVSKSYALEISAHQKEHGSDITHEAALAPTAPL

Binder	EC50 [1] [nM]	EC50 [2] [nM]	% Competition [3] [%]
chimeric antibody 001c (antibody, V domains shown) VH: EVKLEESGGGLVQPGGSMKLSCVASGFTFRNYWMNWVRQSPERGLEWIAEISLKSNTYATHYAESVKGRFAISRDGSKSSFYLQMNDLRAEDTGIYYCTTFTKVVADWHLDVWGAGTTVTVSS VL: DVLMTQTPLSLPVSLGDQASISCRSSQNIVHSNGNTYLEWYLQKPGQSPKLLIYKVSNRFSGVPDRFSGSGSGTDFTLRISRVEAEDLGVYYCFQGSHVPFTFGSGTKLEIK	0.12	0.09	–
Antibody 001 (hybridoma antibody) (antibody, V domains shown, mouse hybridoma antibody) VH: EVKLEESGGGLVQPGGSMKLSCVASGFTFRNYWMNWVRQSPERGLEWIAEISLKSNTYATHYAESVKGRFAISRDGSKSSFYLQMNDLRAEDTGIYYCTTFTKVVADWHLDVWGAGTTVTVSS VL: DVLMTQTPLSLPVSLGDQASISCRSSQNIVHSNGNTYLEWYLQKPGQSPKLLIYKVSNRFSGVPDRFSGSGSGTDFTLRISRVEAEDLGVYYCFQGSHVPFTFGSGTKLEIK	–	–	92
Antibody 002 (hybridoma antibody) (antibody, V domains shown, mouse hybridoma antibody) VH: EVKLEESGGGLVQPGGSMILSCVASGFTFRNYWMNWVRQSPERGLEWIAEITLKSNTYATHYAESVKGRFAISRDDSKSSFYLQMNDLRPEDTGIYYCTTFTKVVADWHLDVWGAGTTVTVSS VL: DVLMTQTPLSLPVSLGDQASISCRSSQNIVHSNGNTYLEWYLQKPGQSPKLLIYKISNRFSGVPDRFSGSGSGTDFTLRISRVEAEDLGVYYCFQGSHVPFTFGSGTKLEIQ	–	–	87
Antibody 032 (hybridoma antibody) (antibody, V domains shown, mouse hybridoma antibody) VH: EVRLEESGGGLVQPGGSMKLSCVVSGFTFRNYWMNWVRQSPERGLEWIAEITLKSNTYATHYAESVKGRFAISRDDSKSSFYLQMNDLRPEDTGIYYCTTFTKVVADWHLDVWGAGTTVTVSS VL: DVLMTQTPLSLPVNLGDQASISCRSSQNIVHSNGNTYLEWYLQKPGQSPKLLIYKVSNRFSGVPDRFSGSGSGTDFTLRISRVEAEDLGVYYCFQGSHVPFTFGSGTKLEIK	–	–	83
chimeric antibody 055c (antibody, V domains shown) VH: EVKLVESEGGLVQPGDSMKLSCTASGFTFSDYFMTWIRQVPEKGLEWIANVNYDGRSTYYLDSLKSRFIISRDNANNILYLQMSSLKSEDTATYYCAREGSQTPLYAVDYWGQGTSVTVSS VL: DIVMTQSQKFMSTTVGDRVNITCKASQNVGTAVAWYQQKPGQSPKLLIYLASNRYTGVPDRFTGSGSGTDFTLTVSDMRSEDLADYFCQQYSIYPFTFGSGTKLEIK	–	0.11	–
Antibody 074 (hybridoma antibody) (antibody, V domains shown, mouse hybridoma antibody) VH: QVQLQQPRAELVKPGASVMLSCKASGYTFSSYWIHWVRQGPGQGLEWIGLIHPNSGNTDCSETFKNKATLTVDTSSSTAYMQLSSLASEDSAVYYCARDGASYDWFVHWGQGTLVTVSA VL: not shown	–	–	-19
chimeric antibody 060c (antibody, V domains shown) VH: QVQLKESGPGLVAPSESLSITCTVSGFSLTNYDISWIRQSPGKGLEWLGVIWTGGDTNFNSAFMSRLSISKDKSKSQVFLKLNSLQTDDTAIYYCVRVQYFGGSYGPMDYWGQGISVTVSS VL: DIQMTQASSYLSVSLGGRVTITCEASDHINDWLAWYQQTPGNAPRLLISGATSLETGVPSRFSGSGSGKDYTLSITSLQTEDIATYYCQQYWNTPLTFGAGTRLELK	0.24	–	–
Antibody 060 (hybridoma antibody) (antibody, V domains shown, mouse hybridoma antibody) VH: QVQLKESGPGLVAPSESLSITCTVSGFSLTNYDISWIRQSPGKGLEWLGVIWTGGDTNFNSAFMSRLSISKDKSKSQVFLKLNSLQTDDTAIYYCVRVQYFGGSYGPMDYWGQGISVTVSS VL: DIQMTQASSYLSVSLGGRVTITCEASDHINDWLAWYQQTPGNAPRLLISGATSLETGVPSRFSGSGSGKDYTLSITSLQTEDIATYYCQQYWNTPLTFGAGTRLELK	–	–	-5
reference antibody HEFLB (antibody, V domains shown) VH: EVQLVQSGAEVKKPGESLRISCKASGYSFTSYWVHWVRQMPGKGLEWMGNIDPSDSDTHYSPSFQGHVTLSVDKSISTAYLQLSSLKASDTAMYYCVRGGTGTLAYFAYWGQGTLVTVSS VL: DVVMTQSPLSLPVTLGQPASISCRSSQSLVHSYGNTYLYWFQQRPGQSPRLLIYRVSNRFSGVPDRFSGSGSGTDFTLKISRVEAEDVGVYYCFQGTHVPYTFGGGTKVEIK	0.08	–	70
